For one data set, the system named is CHO-S cells. Briefly: Western blot analysis of PH20 expression in media and cells after transient expression. The data set is classed as cell-based, Chinese Hamster. The note with it: media versus cells. The method in brief: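 CHO-S cells were transiently transfected with mutant PH20-HZ24 plasmids using GeneJuice and expressed for 48-72 h at 37 °C, 5% CO2. Media and cells were harvested separately, with PI-PLC treatment used to release GPI-anchored protein. Non-reduced samples were blotted with rabbit anti-PH20 (0.5 μg/mL), and a band near 66 kDa was scored as PH20.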
In general terms: A western blot detects proteins with antibodies after separation by electrophoresis.

Data set [1] can be described thus: Microtiter hyaluronidase activity assay with biotinylated-hyaluronic acid. The note with it: Table 6, 72 hour post transfection supernatant. The data set is classed as biochemical.

B1: SPAM1-EPQI: C-terminally truncated human PH20, precursor 480 aa (SEQ ID NO:20), mature 445 aa (SEQ ID NO:72) (protein, listed as Homo sapiens)
chain 1: MGVLKFKHIFFRSFVKSSGVSQIVFTFLLIPCCLTLNFRAPPVIPNVPFLWAWNAPSEFCLGKFDEPLDMSLFSFIGSPRINATGQGVTIFYVDRLGYYPYIDSITGVTVNGGIPQKISLQDHLDKAKKDITFYMPVDNLGMAVIDWEEWRPTWARNWKPKDVYKNRSIELVQQQNVQLSLTEATEKAKQEFEKAGKDFLVETIKLGKLLRPNHLWGYYLFPDCYNHHYKKPGYNGSCFNVEIKRNDDLSWLWNESTALYPSIYLNTQQSPVAATLYVRNRVREAIRVSKIPDAKSPLPVFAYTRIVFTDQVLKFLSQDELVYTFGETVALGASGIVIWGTLSIMRSMKSCLLLDNYMETILNPYIINVTLAAKMCSQVLCQEQGVCIRKNWNSSDYLHLNPDNFAIQLEKGGKFTVRGKPTLEDLEQFSEKFYCSCYSTLSCKEKADVKDTDAVDVCIADGVCIDAFLKPPMETEEPQI
chain 2: LNFRAPPVIPNVPFLWAWNAPSEFCLGKFDEPLDMSLFSFIGSPRINATGQGVTIFYVDRLGYYPYIDSITGVTVNGGIPQKISLQDHLDKAKKDITFYMPVDNLGMAVIDWEEWRPTWARNWKPKDVYKNRSIELVQQQNVQLSLTEATEKAKQEFEKAGKDFLVETIKLGKLLRPNHLWGYYLFPDCYNHHYKKPGYNGSCFNVEIKRNDDLSWLWNESTALYPSIYLNTQQSPVAATLYVRNRVREAIRVSKIPDAKSPLPVFAYTRIVFTDQVLKFLSQDELVYTFGETVALGASGIVIWGTLSIMRSMKSCLLLDNYMETILNPYIINVTLAAKMCSQVLCQEQGVCIRKNWNSSDYLHLNPDNFAIQLEKGGKFTVRGKPTLEDLEQFSEKFYCSCYSTLSCKEKADVKDTDAVDVCIADGVCIDAFLKPPMETEEPQI
modifications: HuPH20 precursor 1-480; Mature HuPH20 36-480
B1: in the data set on CHO-S cells, the “Expressed in Media” value was “YES”. Also, in data set [1], the “pH 5.5 Activity” value is listed as 1.6425 Units/ml and the “pH 7.4 Activity” value came out at 2.1825 Units/ml.

B2: SPAM1-EEPQ: C-terminally truncated human PH20, precursor 479 aa (SEQ ID NO:21), mature 444 aa (SEQ ID NO:73) (protein, listed as Homo sapiens)
chain 1: MGVLKFKHIFFRSFVKSSGVSQIVFTFLLIPCCLTLNFRAPPVIPNVPFLWAWNAPSEFCLGKFDEPLDMSLFSFIGSPRINATGQGVTIFYVDRLGYYPYIDSITGVTVNGGIPQKISLQDHLDKAKKDITFYMPVDNLGMAVIDWEEWRPTWARNWKPKDVYKNRSIELVQQQNVQLSLTEATEKAKQEFEKAGKDFLVETIKLGKLLRPNHLWGYYLFPDCYNHHYKKPGYNGSCFNVEIKRNDDLSWLWNESTALYPSIYLNTQQSPVAATLYVRNRVREAIRVSKIPDAKSPLPVFAYTRIVFTDQVLKFLSQDELVYTFGETVALGASGIVIWGTLSIMRSMKSCLLLDNYMETILNPYIINVTLAAKMCSQVLCQEQGVCIRKNWNSSDYLHLNPDNFAIQLEKGGKFTVRGKPTLEDLEQFSEKFYCSCYSTLSCKEKADVKDTDAVDVCIADGVCIDAFLKPPMETEEPQ
chain 2: MGVLKFKHIFFRSFVKSSGVSQIVFTFLLIPCCLTLNFRAPPVIPNVPFLWAWNAPSEFCLGKFDEPLDMSLFSFIGSPRINATGQGVTIFYVDRLGYYPYIDSITGVTVNGGIPQKISLQDHLDKAKKDITFYMPVDNLGMAVIDWEEWRPTWARNWKPKDVYKNRSIELVQQQNVQLSLTEATEKAKQEFEKAGKDFLVETIKLGKLLRPNHLWGYYLFPDCYNHHYKKPGYNGSCFNVEIKRNDDLSWLWNESTALYPSIYLNTQQSPVAATLYVRNRVREAIRVSKIPDAKSPLPVFAYTRIVFTDQVLKFLSQDELVYTFGETVALGASGIVIWGTLSIMRSMKSCLLLDNYMETILNPYIINVTLAAKMCSQVLCQEQGVCIRKNWNSSDYLHLNPDNFAIQLEKGGKFTVRGKPTLEDLEQFSEKFYCSCYSTLSCKEKADVKDTDAVDVCIADGVCIDAFLKPPMETEEPQ
modifications: HuPH20 precursor 1-479; Mature HuPH20 36-479
In the case of B2, in the data set on CHO-S cells, the “Expressed in Media” value is given as “YES”. In data set [1], the “pH 5.5 Activity” value came out at 2.0745 Units/ml and the “pH 7.4 Activity” value was 1.917 Units/ml.

B3: SPAM1-TEEP: C-terminally truncated human PH20, precursor 478 aa (SEQ ID NO:22), mature 443 aa (SEQ ID NO:74) (protein, listed as Homo sapiens)
chain 1: MGVLKFKHIFFRSFVKSSGVSQIVFTFLLIPCCLTLNFRAPPVIPNVPFLWAWNAPSEFCLGKFDEPLDMSLFSFIGSPRINATGQGVTIFYVDRLGYYPYIDSITGVTVNGGIPQKISLQDHLDKAKKDITFYMPVDNLGMAVIDWEEWRPTWARNWKPKDVYKNRSIELVQQQNVQLSLTEATEKAKQEFEKAGKDFLVETIKLGKLLRPNHLWGYYLFPDCYNHHYKKPGYNGSCFNVEIKRNDDLSWLWNESTALYPSIYLNTQQSPVAATLYVRNRVREAIRVSKIPDAKSPLPVFAYTRIVFTDQVLKFLSQDELVYTFGETVALGASGIVIWGTLSIMRSMKSCLLLDNYMETILNPYIINVTLAAKMCSQVLCQEQGVCIRKNWNSSDYLHLNPDNFAIQLEKGGKFTVRGKPTLEDLEQFSEKFYCSCYSTLSCKEKADVKDTDAVDVCIADGVCIDAFLKPPMETEEP
chain 2: LNFRAPPVIPNVPFLWAWNAPSEFCLGKFDEPLDMSLFSFIGSPRINATGQGVTIFYVDRLGYYPYIDSITGVTVNGGIPQKISLQDHLDKAKKDITFYMPVDNLGMAVIDWEEWRPTWARNWKPKDVYKNRSIELVQQQNVQLSLTEATEKAKQEFEKAGKDFLVETIKLGKLLRPNHLWGYYLFPDCYNHHYKKPGYNGSCFNVEIKRNDDLSWLWNESTALYPSIYLNTQQSPVAATLYVRNRVREAIRVSKIPDAKSPLPVFAYTRIVFTDQVLKFLSQDELVYTFGETVALGASGIVIWGTLSIMRSMKSCLLLDNYMETILNPYIINVTLAAKMCSQVLCQEQGVCIRKNWNSSDYLHLNPDNFAIQLEKGGKFTVRGKPTLEDLEQFSEKFYCSCYSTLSCKEKADVKDTDAVDVCIADGVCIDAFLKPPMETEEP
modifications: HuPH20 precursor 1-478; Mature HuPH20 36-478
B3: in the data set on CHO-S cells, the “Expressed in Media” value was “YES”. In addition, in data set [1], the “pH 5.5 Activity” value amounted to 1.584 Units/ml and the “pH 7.4 Activity” value turned out to be 1.764 Units/ml.

B4: SPAM1-ETEE: C-terminally truncated human PH20, precursor 477 aa (SEQ ID NO:23), mature 442 aa (SEQ ID NO:75) (protein, listed as Homo sapiens)
chain 1: MGVLKFKHIFFRSFVKSSGVSQIVFTFLLIPCCLTLNFRAPPVIPNVPFLWAWNAPSEFCLGKFDEPLDMSLFSFIGSPRINATGQGVTIFYVDRLGYYPYIDSITGVTVNGGIPQKISLQDHLDKAKKDITFYMPVDNLGMAVIDWEEWRPTWARNWKPKDVYKNRSIELVQQQNVQLSLTEATEKAKQEFEKAGKDFLVETIKLGKLLRPNHLWGYYLFPDCYNHHYKKPGYNGSCFNVEIKRNDDLSWLWNESTALYPSIYLNTQQSPVAATLYVRNRVREAIRVSKIPDAKSPLPVFAYTRIVFTDQVLKFLSQDELVYTFGETVALGASGIVIWGTLSIMRSMKSCLLLDNYMETILNPYIINVTLAAKMCSQVLCQEQGVCIRKNWNSSDYLHLNPDNFAIQLEKGGKFTVRGKPTLEDLEQFSEKFYCSCYSTLSCKEKADVKDTDAVDVCIADGVCIDAFLKPPMETEE
chain 2: LNFRAPPVIPNVPFLWAWNAPSEFCLGKFDEPLDMSLFSFIGSPRINATGQGVTIFYVDRLGYYPYIDSITGVTVNGGIPQKISLQDHLDKAKKDITFYMPVDNLGMAVIDWEEWRPTWARNWKPKDVYKNRSIELVQQQNVQLSLTEATEKAKQEFEKAGKDFLVETIKLGKLLRPNHLWGYYLFPDCYNHHYKKPGYNGSCFNVEIKRNDDLSWLWNESTALYPSIYLNTQQSPVAATLYVRNRVREAIRVSKIPDAKSPLPVFAYTRIVFTDQVLKFLSQDELVYTFGETVALGASGIVIWGTLSIMRSMKSCLLLDNYMETILNPYIINVTLAAKMCSQVLCQEQGVCIRKNWNSSDYLHLNPDNFAIQLEKGGKFTVRGKPTLEDLEQFSEKFYCSCYSTLSCKEKADVKDTDAVDVCIADGVCIDAFLKPPMETEE
modifications: HuPH20 precursor 1-477; Mature HuPH20 36-477
Turning to B4, in the data set with CHO-S cells, the “Expressed in Media” value is reported as “YES”. Besides, in data set [1], the “pH 5.5 Activity” value is listed as 2.0475 Units/ml and the “pH 7.4 Activity” value was 2.088 Units/ml.

B5: SPAM1-METE: C-terminally truncated human PH20, precursor 476 aa (SEQ ID NO:24), mature 441 aa (SEQ ID NO:76) (protein, listed as Homo sapiens)
chain 1: MGVLKFKHIFFRSFVKSSGVSQIVFTFLLIPCCLTLNFRAPPVIPNVPFLWAWNAPSEFCLGKFDEPLDMSLFSFIGSPRINATGQGVTIFYVDRLGYYPYIDSITGVTVNGGIPQKISLQDHLDKAKKDITFYMPVDNLGMAVIDWEEWRPTWARNWKPKDVYKNRSIELVQQQNVQLSLTEATEKAKQEFEKAGKDFLVETIKLGKLLRPNHLWGYYLFPDCYNHHYKKPGYNGSCFNVEIKRNDDLSWLWNESTALYPSIYLNTQQSPVAATLYVRNRVREAIRVSKIPDAKSPLPVFAYTRIVFTDQVLKFLSQDELVYTFGETVALGASGIVIWGTLSIMRSMKSCLLLDNYMETILNPYIINVTLAAKMCSQVLCQEQGVCIRKNWNSSDYLHLNPDNFAIQLEKGGKFTVRGKPTLEDLEQFSEKFYCSCYSTLSCKEKADVKDTDAVDVCIADGVCIDAFLKPPMETE
chain 2: LNFRAPPVIPNVPFLWAWNAPSEFCLGKFDEPLDMSLFSFIGSPRINATGQGVTIFYVDRLGYYPYIDSITGVTVNGGIPQKISLQDHLDKAKKDITFYMPVDNLGMAVIDWEEWRPTWARNWKPKDVYKNRSIELVQQQNVQLSLTEATEKAKQEFEKAGKDFLVETIKLGKLLRPNHLWGYYLFPDCYNHHYKKPGYNGSCFNVEIKRNDDLSWLWNESTALYPSIYLNTQQSPVAATLYVRNRVREAIRVSKIPDAKSPLPVFAYTRIVFTDQVLKFLSQDELVYTFGETVALGASGIVIWGTLSIMRSMKSCLLLDNYMETILNPYIINVTLAAKMCSQVLCQEQGVCIRKNWNSSDYLHLNPDNFAIQLEKGGKFTVRGKPTLEDLEQFSEKFYCSCYSTLSCKEKADVKDTDAVDVCIADGVCIDAFLKPPMETE
modifications: HuPH20 precursor 1-476; Mature HuPH20 36-476
Take B5: the “Expressed in Media” value in the data set on CHO-S cells was “YES”. For the same molecule, in data set [1], the “pH 5.5 Activity” value is 1.278 Units/ml and the “pH 7.4 Activity” value was 1.332 Units/ml.

The values are drawn from US9284543B2, “Neutral active soluble truncated PH20 polypeptides and uses thereof” (Halozyme, Inc., priority 2008, dated 2016).
